Data taken from patent US20180155451A1 (published 2018).

B1: GpH7-B3 variant Q295_18N/GpL16-k0 (Ho Ab) (antibody, human IgG1, kappa)
heavy: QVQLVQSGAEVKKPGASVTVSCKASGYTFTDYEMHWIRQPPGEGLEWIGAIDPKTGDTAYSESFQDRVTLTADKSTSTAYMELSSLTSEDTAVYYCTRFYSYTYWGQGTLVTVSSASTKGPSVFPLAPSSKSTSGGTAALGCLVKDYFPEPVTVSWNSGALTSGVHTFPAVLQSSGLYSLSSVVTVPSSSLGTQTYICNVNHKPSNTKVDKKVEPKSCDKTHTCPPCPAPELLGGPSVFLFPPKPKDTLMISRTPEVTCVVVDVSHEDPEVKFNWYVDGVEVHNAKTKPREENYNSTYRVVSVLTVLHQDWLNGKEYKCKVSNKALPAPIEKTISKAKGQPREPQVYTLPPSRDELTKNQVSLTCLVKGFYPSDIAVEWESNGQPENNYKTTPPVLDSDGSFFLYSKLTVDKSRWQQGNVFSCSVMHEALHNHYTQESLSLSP
light: DIVMTQSPLSLPVTPGEPASISCQASESLVHSNRNTYLHWYLQKPGQSPQLLIYKVSNRFSGVPDRFSGSGSGTDFTLKISRVEAEDVGVYYCSQNTHVPPTFGQGTKVEIERTVAAPSVFIFPPSDEQLKSGTASVVCLLNNFYPREAKVQWKVDNALQSGNSQESVTEQDSKDSTYSLSSTLTLSKADYEKHKVYACEVTHQGLSSPVTKSFNRGEC
notes: Ho Ab: alteration in both H chains
B2: GpH7-B3 variant S239_01G/GpL16-k0 (Ho Ab) (antibody, human IgG1, kappa)
heavy: not shown
light: B1 light
notes: as for B1
B3: GpH7-B3 variant S324_19Q/GpL16-k0 (Ho Ab) (antibody, human IgG1, kappa)
heavy: not shown
light: B1 light
notes: as for B1
B4: GpH7-B3 variant S337_02A/GpL16-k0 (Ho Ab) (antibody, human IgG1, kappa)
heavy: not shown
light: B1 light
notes: as for B1
B5: GpH7-B3 variant S298_16H/GpL16-k0 (Ho Ab) (antibody, human IgG1, kappa)
heavy: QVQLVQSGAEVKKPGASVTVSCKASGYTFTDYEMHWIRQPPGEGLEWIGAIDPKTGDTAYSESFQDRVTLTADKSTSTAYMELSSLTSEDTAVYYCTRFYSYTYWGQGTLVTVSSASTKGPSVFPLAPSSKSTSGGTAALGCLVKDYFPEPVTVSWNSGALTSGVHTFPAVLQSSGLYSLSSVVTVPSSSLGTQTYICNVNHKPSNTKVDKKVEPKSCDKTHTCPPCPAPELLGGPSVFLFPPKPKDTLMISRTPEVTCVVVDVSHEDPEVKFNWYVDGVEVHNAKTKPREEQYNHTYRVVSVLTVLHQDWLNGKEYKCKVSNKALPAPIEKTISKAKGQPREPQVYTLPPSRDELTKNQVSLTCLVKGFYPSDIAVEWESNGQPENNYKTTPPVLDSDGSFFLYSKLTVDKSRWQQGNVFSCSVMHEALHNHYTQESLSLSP
light: B1 light
notes: as for B1
B6: GpH7-B3 variant S298_19Q/GpL16-k0 (Ho Ab) (antibody, human IgG1, kappa)
heavy: not shown
light: B1 light
notes: as for B1
B7: GpH7-B3 variant S298_15Y/GpL16-k0 (Ho Ab) (antibody, human IgG1, kappa)
heavy: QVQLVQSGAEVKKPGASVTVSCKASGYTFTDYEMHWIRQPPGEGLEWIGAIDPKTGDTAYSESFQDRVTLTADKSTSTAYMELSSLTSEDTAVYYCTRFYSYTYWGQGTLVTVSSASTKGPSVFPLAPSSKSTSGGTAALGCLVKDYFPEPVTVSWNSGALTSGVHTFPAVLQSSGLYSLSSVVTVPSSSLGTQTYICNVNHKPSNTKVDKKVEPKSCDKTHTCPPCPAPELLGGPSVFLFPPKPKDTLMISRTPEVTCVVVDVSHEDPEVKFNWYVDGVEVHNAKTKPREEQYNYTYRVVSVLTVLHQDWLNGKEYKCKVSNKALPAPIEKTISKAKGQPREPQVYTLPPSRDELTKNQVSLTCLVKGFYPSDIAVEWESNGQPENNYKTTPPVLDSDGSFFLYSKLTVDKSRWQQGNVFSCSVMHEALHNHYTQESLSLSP
light: B1 light
notes: as for B1
B8: GpH7-B3 variant S267_03V/GpL16-k0 (Ho Ab) (antibody, human IgG1, kappa)
heavy: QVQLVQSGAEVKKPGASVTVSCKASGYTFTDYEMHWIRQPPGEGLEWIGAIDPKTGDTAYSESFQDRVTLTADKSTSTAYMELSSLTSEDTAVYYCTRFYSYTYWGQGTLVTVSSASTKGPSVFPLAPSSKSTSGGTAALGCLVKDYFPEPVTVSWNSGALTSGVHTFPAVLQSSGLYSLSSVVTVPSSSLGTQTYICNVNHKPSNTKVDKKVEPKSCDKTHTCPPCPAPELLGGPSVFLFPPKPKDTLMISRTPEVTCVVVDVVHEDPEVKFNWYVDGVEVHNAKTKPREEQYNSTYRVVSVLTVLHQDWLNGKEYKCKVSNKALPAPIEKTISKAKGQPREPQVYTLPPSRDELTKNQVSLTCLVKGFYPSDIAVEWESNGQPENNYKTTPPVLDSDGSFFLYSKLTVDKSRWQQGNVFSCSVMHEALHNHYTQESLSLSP
light: B1 light
notes: as for B1
B9: GpH7-B3 variant S324_14T/GpL16-k0 (Ho Ab) (antibody, human IgG1, kappa)
heavy: not shown
light: B1 light
notes: as for B1
B10: GpH7-B3 variant S324_20W/GpL16-k0 (Ho Ab) (antibody, human IgG1, kappa)
heavy: not shown
light: B1 light
notes: as for B1
B11: GpH7-B3 variant S324_03V/GpL16-k0 (Ho Ab) (antibody, human IgG1, kappa)
heavy: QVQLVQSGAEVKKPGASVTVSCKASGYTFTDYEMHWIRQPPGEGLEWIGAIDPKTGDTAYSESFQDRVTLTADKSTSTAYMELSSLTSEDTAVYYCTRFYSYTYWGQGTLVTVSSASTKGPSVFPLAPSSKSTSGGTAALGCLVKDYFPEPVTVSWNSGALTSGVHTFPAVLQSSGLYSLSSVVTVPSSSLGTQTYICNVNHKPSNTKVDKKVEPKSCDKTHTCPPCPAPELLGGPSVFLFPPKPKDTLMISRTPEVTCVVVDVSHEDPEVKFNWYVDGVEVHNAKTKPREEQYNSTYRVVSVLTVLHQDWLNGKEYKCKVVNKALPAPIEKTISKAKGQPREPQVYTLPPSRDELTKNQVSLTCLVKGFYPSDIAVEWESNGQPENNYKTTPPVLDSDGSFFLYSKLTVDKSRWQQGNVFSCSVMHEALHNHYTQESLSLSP
light: B1 light
notes: as for B1
B12: GpH7-B3 variant S337_01G/GpL16-k0 (Ho Ab) (antibody, human IgG1, kappa)
heavy: not shown
light: B1 light
notes: as for B1
B13: GpH7-B3 variant S239_09D/GpL16-k0 (Ho Ab) (antibody, human IgG1, kappa)
heavy: not shown
light: B1 light
notes: Ho Ab: alteration in both H chains; also called GpH7-B3-06-09D/GpL16-k0
B14: GpH7-B3 variant S298_18N/GpL16-k0 (Ho Ab) (antibody, human IgG1, kappa)
heavy: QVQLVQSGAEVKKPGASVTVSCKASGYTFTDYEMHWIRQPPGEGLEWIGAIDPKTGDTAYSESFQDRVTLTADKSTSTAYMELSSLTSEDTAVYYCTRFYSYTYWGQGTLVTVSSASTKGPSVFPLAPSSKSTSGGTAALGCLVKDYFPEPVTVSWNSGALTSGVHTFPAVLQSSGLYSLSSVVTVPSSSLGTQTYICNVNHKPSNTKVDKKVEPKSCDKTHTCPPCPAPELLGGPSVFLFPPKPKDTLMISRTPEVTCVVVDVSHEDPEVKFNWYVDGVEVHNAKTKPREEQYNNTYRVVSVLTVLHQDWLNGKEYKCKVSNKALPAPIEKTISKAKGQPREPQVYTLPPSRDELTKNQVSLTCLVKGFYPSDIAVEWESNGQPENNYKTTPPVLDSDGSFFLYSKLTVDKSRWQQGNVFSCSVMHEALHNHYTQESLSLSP
light: B1 light
notes: as for B1
B15: GpH7-B3 variant S267_02A/GpL16-k0 (Ho Ab) (antibody, human IgG1, kappa)
heavy: not shown
light: B1 light
notes: as for B1
B16: GpH7-B3 variant S337_03V/GpL16-k0 (Ho Ab) (antibody, human IgG1, kappa)
heavy: not shown
light: B1 light
notes: as for B1
B17: GpH7-B3 variant S298_07I/GpL16-k0 (Ho Ab) (antibody, human IgG1, kappa)
heavy: not shown
light: B1 light
notes: as for B1
B18: GpH7-B3 variant S324_02A/GpL16-k0 (Ho Ab) (antibody, human IgG1, kappa)
heavy: not shown
light: B1 light
notes: as for B1
B19: GpH7-B3 variant S267_09D/GpL16-k0 (Ho Ab) (antibody, human IgG1, kappa)
heavy: not shown
light: B1 light
notes: as for B1
B20: GpH7-B3 variant S298_08L/GpL16-k0 (Ho Ab) (antibody, human IgG1, kappa)
heavy: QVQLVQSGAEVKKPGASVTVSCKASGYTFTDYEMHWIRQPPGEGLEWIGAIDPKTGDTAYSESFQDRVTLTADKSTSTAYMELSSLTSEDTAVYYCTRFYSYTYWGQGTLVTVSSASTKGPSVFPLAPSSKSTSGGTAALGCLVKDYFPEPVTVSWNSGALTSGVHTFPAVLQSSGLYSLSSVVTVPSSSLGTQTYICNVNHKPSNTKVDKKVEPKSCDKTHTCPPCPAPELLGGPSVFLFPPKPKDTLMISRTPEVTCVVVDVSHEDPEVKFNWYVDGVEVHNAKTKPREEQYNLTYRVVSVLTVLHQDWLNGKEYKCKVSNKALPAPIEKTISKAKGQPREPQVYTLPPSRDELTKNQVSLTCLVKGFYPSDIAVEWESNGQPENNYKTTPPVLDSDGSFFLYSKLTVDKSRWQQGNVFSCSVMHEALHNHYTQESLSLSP
light: B1 light
notes: as for B1
B21: GpH7-B3 variant S298_14T/GpL16-k0 (Ho Ab) (antibody, human IgG1, kappa)
heavy: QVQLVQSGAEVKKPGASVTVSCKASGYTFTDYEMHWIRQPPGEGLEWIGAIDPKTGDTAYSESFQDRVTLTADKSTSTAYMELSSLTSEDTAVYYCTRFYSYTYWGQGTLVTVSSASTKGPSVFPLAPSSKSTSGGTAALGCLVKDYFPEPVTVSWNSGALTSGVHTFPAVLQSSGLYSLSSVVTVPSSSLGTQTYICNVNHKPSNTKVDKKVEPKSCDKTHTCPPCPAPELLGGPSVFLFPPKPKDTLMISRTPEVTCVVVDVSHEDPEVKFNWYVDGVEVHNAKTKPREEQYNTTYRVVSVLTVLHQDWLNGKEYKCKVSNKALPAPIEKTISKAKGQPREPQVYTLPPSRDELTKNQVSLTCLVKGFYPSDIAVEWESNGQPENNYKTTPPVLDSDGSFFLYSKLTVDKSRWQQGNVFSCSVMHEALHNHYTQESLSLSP
light: B1 light
notes: as for B1
B22: GpH7-B3 variant S324_08L/GpL16-k0 (Ho Ab) (antibody, human IgG1, kappa)
heavy: not shown
light: B1 light
notes: as for B1
B23: GpH7-B3 variant S298_10E/GpL16-k0 (Ho Ab) (antibody, human IgG1, kappa)
heavy: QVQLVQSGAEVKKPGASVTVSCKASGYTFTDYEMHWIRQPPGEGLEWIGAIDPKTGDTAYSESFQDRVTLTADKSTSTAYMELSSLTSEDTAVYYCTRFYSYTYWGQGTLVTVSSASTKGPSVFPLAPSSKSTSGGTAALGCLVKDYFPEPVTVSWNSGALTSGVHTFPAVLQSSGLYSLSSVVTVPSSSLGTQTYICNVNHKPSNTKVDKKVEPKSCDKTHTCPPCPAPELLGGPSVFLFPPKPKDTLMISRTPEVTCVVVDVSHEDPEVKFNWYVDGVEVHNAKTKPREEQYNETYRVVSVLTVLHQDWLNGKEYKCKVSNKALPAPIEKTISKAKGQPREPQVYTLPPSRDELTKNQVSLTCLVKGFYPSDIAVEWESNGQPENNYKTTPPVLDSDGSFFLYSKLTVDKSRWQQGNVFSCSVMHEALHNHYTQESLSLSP
light: B1 light
notes: as for B1
B24: GpH7-B3 variant S298_03V/GpL16-k0 (Ho Ab) (antibody, human IgG1, kappa)
heavy: not shown
light: B1 light
notes: as for B1
B25: GpH7-B3 variant S267_01G/GpL16-k0 (Ho Ab) (antibody, human IgG1, kappa)
heavy: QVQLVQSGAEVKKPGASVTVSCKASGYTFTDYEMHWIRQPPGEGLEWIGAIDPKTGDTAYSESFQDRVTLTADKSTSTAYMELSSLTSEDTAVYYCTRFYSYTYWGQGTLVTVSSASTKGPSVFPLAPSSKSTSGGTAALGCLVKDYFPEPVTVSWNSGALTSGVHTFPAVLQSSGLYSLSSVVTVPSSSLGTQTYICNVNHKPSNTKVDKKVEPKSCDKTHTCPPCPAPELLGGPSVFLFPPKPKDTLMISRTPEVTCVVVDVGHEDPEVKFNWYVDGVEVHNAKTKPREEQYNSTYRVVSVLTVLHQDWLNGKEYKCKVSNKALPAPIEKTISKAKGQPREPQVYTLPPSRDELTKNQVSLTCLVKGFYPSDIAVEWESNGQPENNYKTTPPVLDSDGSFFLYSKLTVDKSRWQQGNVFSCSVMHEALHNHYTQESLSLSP
light: B1 light
notes: as for B1
B26: GpH7-A5/GpH7-B3 variant P271_02A/GpL16-k0 (He Ab) (antibody, human IgG1, kappa)
heavy 1: not shown
heavy 2: not shown
light: B1 light
notes: He Ab: alteration only in the GpH7-B3 chain
B27: GpH7-A5/GpH7-B3 variant I336_01G/GpL16-k0 (He Ab) (antibody, human IgG1, kappa)
heavy 1: not shown
heavy 2: not shown
light: B1 light
notes: as for B26
B28: GpH7-A5/GpH7-B3 variant E269_08L/GpL16-k0 (He Ab) (antibody, human IgG1, kappa)
heavy 1: not shown
heavy 2: not shown
light: B1 light
notes: as for B26
B29: GpH7-A5/GpH7-B3 variant Q295_04F/GpL16-k0 (He Ab) (antibody, human IgG1, kappa)
heavy 1: not shown
heavy 2: not shown
light: B1 light
notes: as for B26

biological target: T1, FcγRIa extracellular domain with C-terminal His tag (human, UniProt P12314 16-292); test: SPR Biacore, antibody captured, FcγRIa analyte; vs GpH7-B3/GpL16-k0 = 100
T1 construct: extracellular domain; Expressed in FreeStyle293 cells; analyte in Biacore; also called FcgRI; FcgRIa
T1 sequence (P12314 16-292): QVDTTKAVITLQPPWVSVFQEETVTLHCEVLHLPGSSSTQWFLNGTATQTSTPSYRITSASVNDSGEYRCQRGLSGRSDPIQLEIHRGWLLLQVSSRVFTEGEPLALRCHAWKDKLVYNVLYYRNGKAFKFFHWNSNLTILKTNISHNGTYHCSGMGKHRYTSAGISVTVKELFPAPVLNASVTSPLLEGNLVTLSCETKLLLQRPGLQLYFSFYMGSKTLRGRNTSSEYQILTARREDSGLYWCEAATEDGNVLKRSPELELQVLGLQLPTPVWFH

Row | Ho/Con_1a | Binder
1 | 101 relative (control = 100) | B1
2 | 101 relative (control = 100) | B2
3 | 111 relative (control = 100) | B3
4 | 103 relative (control = 100) | B4
5 | 107 relative (control = 100) | B5
6 | 105 relative (control = 100) | B6
7 | 103 relative (control = 100) | B7
8 | 102 relative (control = 100) | B8
9 | 112 relative (control = 100) | B9
10 | 112 relative (control = 100) | B10
11 | 103 relative (control = 100) | B11
12 | 102 relative (control = 100) | B12
13 | 101 relative (control = 100) | B13
14 | 104 relative (control = 100) | B14
15 | 108 relative (control = 100) | B15
16 | 105 relative (control = 100) | B16
17 | 103 relative (control = 100) | B17
18 | 103 relative (control = 100) | B18
19 | 106 relative (control = 100) | B19
20 | 104 relative (control = 100) | B20
21 | 106 relative (control = 100) | B21
22 | 103 relative (control = 100) | B22
23 | 106 relative (control = 100) | B23
24 | 106 relative (control = 100) | B24
25 | 102 relative (control = 100) | B25

biological target: T1, FcγRIa extracellular domain with …; test: SPR Biacore, antibody captured, FcγRIa analyte; vs GpH7-A5/GpH7-B3/GpL16-k0 = 100

Row | He/Con_1a | Binder
26 | 104 relative (control = 100) | B26
27 | 109 relative (control = 100) | B27
28 | 104 relative (control = 100) | B28
29 | 102 relative (control = 100) | B29
